The labels stand for the following.
B1: PD1-45D6 (antibody, V domains shown)
VH: QVQLVESGGGVVQPGRSLRLSCAASGFTFSSYAMHWVRQVPGKGLEWVAVISYDGNDKYYADSVKGRFTISRDNSKNTLYLQMNSLRAEDTAVYYCVPTTFEYWGQGSQVTVSS
VL: DIVMTQTPLSLPVTPGEAASISCRSSQSLLDSDDGKTYLDWYLQKPGQSPQLLIYTLSYRASGVPDRFSGSGSGTEFNLRISRVEAEDVGIYYCMQRVEFPFTFGQGTKLDIK
notes: scFv-phage in the screening ELISA; whole IgG in the other assays
B2: PD1-41C9 (antibody, V domains shown)
VH: QMQLVESGGGVVQPGRSLRLSCAASGFTFSSYAMHWVRQAPGKGLEWVAVISYDGSNKYYADSVKGRFTISRDNSKNTLYLQMNRLRSEDTAVYYCTTTTFDSWGQGTLITVSS
VL: DIVMTQTPLSLPVTPGEAASISCRSSQSLLDSEDGNTYLDWYLQKPGQSPQLLIYTLSHRASGVPDRFSGSGSGTDFTLKISRVAAEDVGLYYCLQRMGFPYTFGQGTKLDIK
notes: as for B1
B3: PD1-49A2 (antibody, V domains shown)
VH: B2 VH with M2V, S75P, R85S, S88A, Q106R, I110V
VL: B2 VL with T7S, A18P, L30F, E33D, A85E, L91I, L110V, D111E
notes: scFv-phage in the screening ELISA; whole IgG in the other assays; also called Parent 49A2

Experimental findings from patent publication US20190248900A1 (Y BIOLOGICS, published 2019) are described below.

Substitutions are numbered along the chain they refer to.

Chain of SUSD1 (Q6UWL2 30-721 limits assumed): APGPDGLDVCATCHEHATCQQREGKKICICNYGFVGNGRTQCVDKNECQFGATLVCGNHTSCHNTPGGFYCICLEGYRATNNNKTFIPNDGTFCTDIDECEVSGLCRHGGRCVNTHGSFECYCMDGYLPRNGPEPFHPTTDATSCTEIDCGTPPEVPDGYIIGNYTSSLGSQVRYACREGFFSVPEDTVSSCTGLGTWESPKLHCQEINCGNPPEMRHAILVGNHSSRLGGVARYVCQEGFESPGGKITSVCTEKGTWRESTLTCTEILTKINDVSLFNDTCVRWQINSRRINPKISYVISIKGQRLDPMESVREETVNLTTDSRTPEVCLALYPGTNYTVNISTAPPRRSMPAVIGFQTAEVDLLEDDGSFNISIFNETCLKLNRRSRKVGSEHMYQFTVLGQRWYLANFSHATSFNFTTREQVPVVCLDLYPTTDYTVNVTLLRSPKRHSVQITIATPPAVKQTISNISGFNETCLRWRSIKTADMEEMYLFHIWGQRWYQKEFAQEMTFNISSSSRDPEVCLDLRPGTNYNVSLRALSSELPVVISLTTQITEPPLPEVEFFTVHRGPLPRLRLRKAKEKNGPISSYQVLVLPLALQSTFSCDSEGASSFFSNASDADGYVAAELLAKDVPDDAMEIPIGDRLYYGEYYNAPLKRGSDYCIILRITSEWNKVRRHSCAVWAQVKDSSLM
T7 sequence (Q15116 25-288): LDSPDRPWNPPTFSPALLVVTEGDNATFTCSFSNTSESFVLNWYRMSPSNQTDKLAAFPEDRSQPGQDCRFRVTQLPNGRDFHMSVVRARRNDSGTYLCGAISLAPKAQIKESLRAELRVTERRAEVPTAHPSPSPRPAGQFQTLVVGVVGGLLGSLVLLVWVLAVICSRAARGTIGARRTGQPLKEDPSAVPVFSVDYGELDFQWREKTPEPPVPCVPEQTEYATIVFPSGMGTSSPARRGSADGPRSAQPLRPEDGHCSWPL

One test deals with APCDD1 (Homo sapiens (Human), UniProt Q8J025 27-492). The experiment in a line: ELISA. (In general: In an ELISA, binding on a coated surface is turned into a signal by an enzyme label.)
Chain of APCDD1 (Q8J025 27-492 limits assumed): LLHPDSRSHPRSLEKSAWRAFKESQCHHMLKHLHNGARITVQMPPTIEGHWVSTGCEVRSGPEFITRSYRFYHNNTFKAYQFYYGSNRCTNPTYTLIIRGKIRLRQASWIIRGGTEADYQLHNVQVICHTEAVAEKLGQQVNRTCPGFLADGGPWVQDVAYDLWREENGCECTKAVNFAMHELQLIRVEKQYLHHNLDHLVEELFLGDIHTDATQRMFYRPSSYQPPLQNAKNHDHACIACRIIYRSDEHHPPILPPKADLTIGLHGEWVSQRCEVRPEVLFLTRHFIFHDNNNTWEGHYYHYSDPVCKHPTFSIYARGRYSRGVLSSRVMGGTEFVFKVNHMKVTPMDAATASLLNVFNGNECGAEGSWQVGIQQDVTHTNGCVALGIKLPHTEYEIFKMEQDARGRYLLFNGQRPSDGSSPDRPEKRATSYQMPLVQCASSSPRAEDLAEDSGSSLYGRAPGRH
As for B1, the binding result was “no binding (tested: 1 ug/ml)”.

B2: the binding result is given as “no binding (tested: 1 ug/ml)”.

Regarding B3, the binding result is given as “no binding (tested: 1 ug/ml)”.

The target in another test is T1, DKK1 (Homo sapiens (Human), UniProt O94907 32-266).
T1 sequence: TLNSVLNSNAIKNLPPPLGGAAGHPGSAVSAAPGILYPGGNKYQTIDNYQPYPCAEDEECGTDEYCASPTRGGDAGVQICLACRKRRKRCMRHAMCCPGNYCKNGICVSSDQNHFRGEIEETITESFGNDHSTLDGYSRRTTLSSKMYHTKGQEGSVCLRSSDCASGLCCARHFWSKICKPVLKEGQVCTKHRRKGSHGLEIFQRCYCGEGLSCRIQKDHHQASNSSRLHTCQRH
The experiment in a line: ELISA.
Take B1: the binding result is given as “no binding (tested: 1 ug/ml)”.

Take B2: the binding result was “no binding (tested: 1 ug/ml)”.

On to B3, for which the binding result is “no binding (tested: 1 ug/ml)”.

The target of the next test is CDCP1 (Homo sapiens (Human), UniProt Q9H5V8 30-667). The experiment in a line: ELISA.
Chain of CDCP1 (Q9H5V8 30-667 limits assumed): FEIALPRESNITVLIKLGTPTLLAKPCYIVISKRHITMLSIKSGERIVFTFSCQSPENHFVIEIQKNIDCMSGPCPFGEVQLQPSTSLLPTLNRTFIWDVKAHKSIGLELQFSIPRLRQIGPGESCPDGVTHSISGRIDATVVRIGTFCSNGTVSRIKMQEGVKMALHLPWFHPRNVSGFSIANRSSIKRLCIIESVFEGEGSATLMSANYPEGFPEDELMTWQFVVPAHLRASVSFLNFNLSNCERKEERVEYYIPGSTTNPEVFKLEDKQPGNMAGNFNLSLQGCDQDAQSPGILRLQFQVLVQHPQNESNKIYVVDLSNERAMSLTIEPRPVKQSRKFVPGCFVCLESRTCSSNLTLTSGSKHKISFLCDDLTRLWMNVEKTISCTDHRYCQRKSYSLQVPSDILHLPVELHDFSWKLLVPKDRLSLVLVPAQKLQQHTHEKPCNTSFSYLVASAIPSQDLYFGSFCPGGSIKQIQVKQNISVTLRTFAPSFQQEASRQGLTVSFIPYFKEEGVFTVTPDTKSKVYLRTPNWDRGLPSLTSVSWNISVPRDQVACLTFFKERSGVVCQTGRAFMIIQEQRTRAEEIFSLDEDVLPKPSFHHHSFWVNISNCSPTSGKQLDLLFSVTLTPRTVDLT
As for B1, the binding result is listed as “no binding (tested: 1 ug/ml)”.

In the case of B2, the binding result is recorded as “no binding (tested: 1 ug/ml)”.

On to B3, for which the binding result was “no binding (tested: 1 ug/ml)”.

For another test, the target named is T2, RAET1E (Homo sapiens (Human), UniProt Q8TD07 31-225).
T2 sequence: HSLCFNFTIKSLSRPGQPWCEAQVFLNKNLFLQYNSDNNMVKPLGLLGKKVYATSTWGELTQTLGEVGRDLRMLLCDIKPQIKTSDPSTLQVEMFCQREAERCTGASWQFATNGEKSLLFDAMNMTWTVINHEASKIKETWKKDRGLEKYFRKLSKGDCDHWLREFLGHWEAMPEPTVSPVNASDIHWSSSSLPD
The experiment in a line: ELISA.
With B1, the binding result was “no binding (tested: 1 ug/ml)”.

Consider B2, for which the binding result is recorded as “no binding (tested: 1 ug/ml)”.

Take B3: the binding result is “no binding (tested: 1 ug/ml)”.

For a further test, the target named is T3, BTN2A1 (Homo sapiens (Human), UniProt Q7KYR7 29-248).
T3 sequence: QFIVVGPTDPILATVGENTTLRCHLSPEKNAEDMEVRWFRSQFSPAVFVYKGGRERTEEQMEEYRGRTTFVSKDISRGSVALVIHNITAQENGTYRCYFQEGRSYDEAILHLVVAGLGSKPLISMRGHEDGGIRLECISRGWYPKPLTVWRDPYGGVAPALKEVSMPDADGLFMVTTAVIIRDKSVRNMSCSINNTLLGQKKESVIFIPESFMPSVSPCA
The experiment in a line: ELISA.
Take B1: the binding result was “no binding (tested: 1 ug/ml)”.

On to B2, for which the binding result is “no binding (tested: 1 ug/ml)”.

As to B3, the binding result is given as “no binding (tested: 1 ug/ml)”.

The next test has as its target TLR3 (Homo sapiens (Human), UniProt O15455 24-704). The experiment in a line: ELISA.
B1: the binding result was “no binding (tested: 1 ug/ml)”.

For the molecule B2, the binding result is reported as “no binding (tested: 1 ug/ml)”.

Turning to B3, the binding result was “no binding (tested: 1 ug/ml)”.

A further test has as its target SUSD1 (Homo sapiens (Human), UniProt Q6UWL2 30-721). The experiment in a line: ELISA.
Consider B1, for which the binding result was “no binding (tested: 1 ug/ml)”.

For the molecule B2, the binding result is given as “no binding (tested: 1 ug/ml)”.

Regarding B3, the binding result was “no binding (tested: 1 ug/ml)”.

In the next test the target is T4, DNER (Homo sapiens (Human), UniProt Q8NFT8 35-640).
T4 sequence: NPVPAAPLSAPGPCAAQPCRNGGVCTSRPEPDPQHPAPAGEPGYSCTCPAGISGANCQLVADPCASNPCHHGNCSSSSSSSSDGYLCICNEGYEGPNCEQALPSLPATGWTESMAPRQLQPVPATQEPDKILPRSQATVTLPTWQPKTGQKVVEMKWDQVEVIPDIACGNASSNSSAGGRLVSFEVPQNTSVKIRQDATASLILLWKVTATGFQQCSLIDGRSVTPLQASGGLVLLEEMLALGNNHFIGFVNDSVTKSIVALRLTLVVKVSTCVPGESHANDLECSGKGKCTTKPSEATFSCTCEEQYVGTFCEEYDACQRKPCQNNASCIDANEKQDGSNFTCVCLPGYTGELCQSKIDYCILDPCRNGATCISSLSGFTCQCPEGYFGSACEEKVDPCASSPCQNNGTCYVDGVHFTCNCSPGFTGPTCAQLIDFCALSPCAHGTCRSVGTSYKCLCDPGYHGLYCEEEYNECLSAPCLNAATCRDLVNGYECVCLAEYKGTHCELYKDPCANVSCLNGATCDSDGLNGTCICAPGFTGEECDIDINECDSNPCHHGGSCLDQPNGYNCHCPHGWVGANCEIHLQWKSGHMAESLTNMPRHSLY
The experiment in a line: ELISA.
With B1, the binding result is reported as “no binding (tested: 1 ug/ml)”.

With B2, the binding result was “no binding (tested: 1 ug/ml)”.

As for B3, the binding result is given as “no binding (tested: 1 ug/ml)”.

The next test deals with T5, NRG4 (Homo sapiens (Human), UniProt Q8WWG1 1-62).
T5 sequence: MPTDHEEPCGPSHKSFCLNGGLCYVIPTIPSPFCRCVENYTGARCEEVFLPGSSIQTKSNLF
The experiment in a line: ELISA.
Consider B1, for which the binding result is reported as “no binding (tested: 1 ug/ml)”.

In the case of B2, the binding result is listed as “no binding (tested: 1 ug/ml)”.

Take B3: the binding result is “no binding (tested: 1 ug/ml)”.

The next test addresses T6, SPOCK2 (Homo sapiens (Human), UniProt Q92563 23-424).
T6 sequence: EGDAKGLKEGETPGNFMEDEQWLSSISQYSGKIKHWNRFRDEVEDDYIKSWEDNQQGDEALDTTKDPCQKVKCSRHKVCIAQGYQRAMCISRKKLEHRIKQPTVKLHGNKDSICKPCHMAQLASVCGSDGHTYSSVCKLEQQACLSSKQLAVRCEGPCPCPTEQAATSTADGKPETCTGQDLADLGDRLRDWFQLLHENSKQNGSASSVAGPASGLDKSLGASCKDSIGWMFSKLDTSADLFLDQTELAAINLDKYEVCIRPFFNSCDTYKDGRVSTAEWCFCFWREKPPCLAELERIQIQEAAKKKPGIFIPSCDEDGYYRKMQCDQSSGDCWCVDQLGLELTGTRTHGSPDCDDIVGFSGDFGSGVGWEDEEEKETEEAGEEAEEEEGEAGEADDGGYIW
The experiment in a line: ELISA.
In the case of B1, the binding result was “no binding (tested: 1 ug/ml)”.

B2: the binding result is given as “no binding (tested: 1 ug/ml)”.

Consider B3, for which the binding result was “no binding (tested: 1 ug/ml)”.

A further test concerns the target T7, human PD-1 (NM_005018.2) over-expressed on cells (human, UniProt Q15116 25-288).
T7 construct: whole, on cells; also called human PD-1 over-expressed on the cell surface; Jurkat cell line highly expressing human PD-1
The experiment in a line: flow cytometry on cells over-expressing human PD-1, Geometric Mean. As to the method:
0.5 to 1×10⁶ cells per sample were each prepared from the transformation cell pools highly expressing human PD-1, and antibodies were serially diluted at a constant dilution rate and reacted with the prepared cells at 4° C. for 20 minutes. Then, the cells were washed three times with PBS (#LB001-02, Welgene) containing 2% fetal bovine serum and reacted at 4° C. for 20 minutes with an anti-human IgG antibody (#FI-3000, Vectorlabs) conjugated with a FITC (fluorescein isothiocyanate) fluorescent substance. Then, the cells were subjected to the same washing process as above and then suspended in 0.5 ml of PBS containing 2% FBS (#26140-079, Thermo Fisher) with an FACSCanto II flow cytometer (BD Biosciences, USA) as a flow cytometer.
A general note: In flow cytometry, cells or beads pass a laser one at a time.
As for B1, the EC50 (commonly the concentration needed to bring the measured effect to its halfway point) turned out to be 4.84 nM.

In the case of B2, the response was half-maximal at 5.89 nM (EC50).

B3 gave an EC50 of 5.07 nM.
